Measurements from patent US20120277143A1 (Janssen / Centocor, published 2012).
Numbering of substitutions follows the chain as printed.

T1: human IL4 (human, UniProt P05112 25-153, biotinylated in the SPR and competition assays (sites not given))
T1 sequence: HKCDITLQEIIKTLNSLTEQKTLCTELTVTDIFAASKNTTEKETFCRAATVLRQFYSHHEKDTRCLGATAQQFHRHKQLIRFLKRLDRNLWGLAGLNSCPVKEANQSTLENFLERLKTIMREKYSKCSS

B1: C06_53G6_V1_C01_6G9_V1 (designed binder)
chain: DLGKKLLEAARAGQDDEVRILMANGADVNATDDWGDTLLHLAATDGHLEIVEVLLKAGADVNANDAIGDTPLHLAALYGHLEIVEVLLKYGADVNATDLHGFTPLHLAAFWGHLEIVEVLLKHGADVNAQDKFGKTAFDISIDNGNEDLAEILQKLNGGGGSGGGGSGGGGSGGGGSDLDKKLLEAARAGQDDEVRILMANGADVNARDSYGSTPLHLAAREGHLEIVEVLLKYGADVNAADFIGDTPLHLAAYRGHLEIVEVLLKYGADVNASDITGETPLHLAAQIGHLEIVEVLLKHGADVNAQDKFGKTAFDISIDNGNEDLAEILQKLN
notes: bispecific IL4/IL13 ankyrin repeat protein with (GGGGS)4 linker; also called bispecific AR protein
B2: C01_6G9_V1_C06_28E5_V1 (designed binder)
chain: DLDKKLLEAARAGQDDEVRILMANGADVNARDSYGSTPLHLAAREGHLEIVEVLLKYGADVNAADFIGDTPLHLAAYRGHLEIVEVLLKYGADVNASDITGETPLHLAAQIGHLEIVEVLLKHGADVNAQDKFGKTAFDISIDNGNEDLAEILQKLGGGGSGGGGSGGGGSGGGGSRSDLGKKLLEAARAGQDDEVRILMANGADVNAADDSGITPLHLAAEDGHLEIVEVLLKAGADVNAQDNLGDTPLHLAAWTGHLEIVEVLLKAGADVNAYDISGITPLHLAAFYGHLEIVEVLLKHGADVNAQDKFGKTAFDISIDNGNEDLAEILQKLN
notes: bispecific IL13/IL4 ankyrin repeat protein with (GGGGS)4 linker; also called bispecific AR protein
B3: 7G11r7 (designed binder)
chain: GLDKKLLEAARAGQDDEVRILMANGADVNATDEFDSTPLHLAARHGHLEIVEVLLKYGADVNAADFIGDTPLHLAAYRGHLEIVEVLLKYGVDVNADDHGDTPLHLAASTGHLEIVEVLLKHGADVNAQDKFGKTAFDISIDNGNEDLAEILQKAA
notes: optimized 7G11; expressed without HIS tag
B4: 9F8r3 (designed binder)
chain: B3 chain with T31S, E33I, D35G, A64F, S109Q, T110I
notes: optimized 9F8; expressed without HIS tag
B5: 6G9r13 (designed binder)
chain: ALDKKLLEAARAGQDDEVRILMANGADVNARDSYGSTPLHLAAREGHLEIVEVLLKYGADVNAADFIGDTPLHLAAYRGHLEIVEVLLKYGADVNASDITGETPLHLAAQIGHLEIVEVLLKHGADVNAQDKFGKTAFDISIDNGNEDLAEILQKAA
notes: optimized 6G9; expressed without HIS tag

How the values were obtained:
human IL13 [1] = biological target: T2, human IL13 (human, UniProt P35225 35-146, biotinylated in the SPR assays (sites not given)); experiment: cell-based or functional assay
human IL4 [2] = biological target: T1, human IL4; experiment: cell-based or functional assay
human IL4 [3] = biological target: T1, human IL4; experiment: Affinity to IL4; method not re-described
human IL13 [4] = biological target: T2, human IL13; experiment: Affinity to IL13; method not re-described
human IL4 [5] = biological target: T1, human IL4; experiment: IL4R binding inhibition; repeats Table 17
Experimental: AR protein inhibition of IL4 binding to IL4 RA was assessed using IL4 RA-Fc (R&D Systems), comprising the Gly24-His232 which represents the ECD (SEQ ID NO: 5) fused to a human IgGl-Fc and therefor a disulfide linked homodimer. The protein was conjugated to carboxylated Luminex microspheres according to the manufacturer's protocol. For neutralization experiments, 5000 IL4RA-Fc conjugated beads in 50 μl were added to each well of a 96-well filter plate (Millipore). Biotinylated human IL4 was mixed with an appropriate dilution of AR protein in Luminex Assay Buffer (PBS, 1% BSA, pH 7.4) to give a final concentration of 67 pM IL4. The plate was incubated for 1 hour at RT in the dark on a plate shaker, set to shake vigorously to avoid bead aggregation. The plate was washed twice with 150 μl of wash buffer (PBS, 0.1% BSA, pH 7.4, 0.05% Tween-20) using a vacuum manifold followed by the addition of 50 μl of Streptavidin PE at 25 μg/ml and incubated at RT for 20 minutes. The plates were washed again and 150 μl of sheath fluid was added and the plate was placed on the shaker for 5 minute. Plates were read using a Luminex® 100 system; data were plotted as a function of AR protein concentration. IC₅₀ values were determined by fitting the data to the equation for sigmoidal dose response using PRISM software (GraphPAD PRISM) (Table 6).

human IL13 R130Q [6] = biological target: T3, human IL13 R130Q (human, UniProt P35225 35-146, biotinylated (sites not given)); experiment: IL13Ra2 binding inhibition; repeats Table 17
T3 construct: Peprotech; also called IL13R13Q; R111Q
Experimental: (§1) Binding protein inhibition of IL13 binding to Rα2 was assessed using IL13Rα2-Fc (R&D Systems) conjugated to carboxylated Luminex microspheres according to the manufacturer's protocol. For biotinylation of IL13, recombinant human IL13 R130Q (Peprotech) was biotinylated at a 4:1 ratio using EZ-Link NHS-LC-Biotin (Pierce, #21336) for 2 hours at RT. The protein was dialyzed in PBS overnight to remove excess biotinylation reagent. For neutralization experiments, 5000 IL13 Rα2-Fc conjugated beads in 50 μl were added to each well of a 96-well filter plate (Millipore). 50 μl of biotinylated human IL13 at 1 ng/ml (80 pM) was mixed with an appropriate dilution of binding protein in Luminex Assay Buffer (PBS, 1% BSA, pH 7.4). The plate was incubated for 1 hour at RT in the dark on a plate shaker, set to shake vigorously to avoid bead aggregation. The plate was washed 3 times with 150 μl of wash buffer (PBS, 1% BSA, pH 7.4, 0.05% Tween-20) using a vacuum manifold followed by the addition of 50 μl of Streptavidin PE at 25 μg/ml and incubated at RT for 20 minutes. The plates were washed again and 100 μl of sheath fluid was added and the plate was placed on the shaker for 1 minute. Plates were read using a Luminex® 100 system; data were plotted as a function of binding protein concentration. IC₅₀ values were determined by fitting the data to the equation for sigmoidal dose response using PRIZM software (GraphPAD PRIZM).

human IL4 [7] = biological target: T1, human IL4; experiment: IL4RA binding inhibition; assay not re-described (Luminex of Example 2)
human IL13 R130Q [8] = biological target: T3, human IL13 R130Q; experiment: IL13Ra2 binding inhibition; assay not re-described (Luminex of Example 2)
Experimental: as §1

human IL13 [9] = biological target: T2, human IL13; experiment: cell-based or functional assay; remark: listed apart in the source
human IL13 [10] = biological target: T2, human IL13; experiment: SPR ProteOn, biotin-hIL13 on streptavidin, 1:1 global fit
Experimental: Complete kinetic data describing binding of various engineered binding protein molecules to human IL13 was measured using a method similar to that described above for the single point affinity analysis. Briefly, streptavidin (Pierce) was immobilized to similar levels (˜1800 RUs) on all six channels of a ProteOn GLC chip via amine coupling (pH 5.0). Biotinylated hIL13 was captured at different surface densities (600˜100 RUs) on different channels. Protein binding was tested starting at 40 nM diluted in a 3-fold concentration series over the different density IL13 surfaces; a buffer sample was injected to monitor the baseline stability. Dissociation phases for all concentrations of each binding protein sample were monitored for one hour at a flow rate of 100 μl/min. Response data for all concentration series from the different density surfaces were globally fit to a 1:1 simple langmuir binding model to extract values of the kinetic (kₒₙ, koff) and affinity (KD) constants provided in Table 16.

T2 sequence (P35225 other isoform, or with tags, fused parts or gaps limits assumed): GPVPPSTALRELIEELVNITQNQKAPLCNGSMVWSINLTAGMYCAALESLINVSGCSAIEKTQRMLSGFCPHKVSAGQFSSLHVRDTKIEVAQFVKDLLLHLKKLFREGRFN
T3 sequence (P35225 35-146 limits assumed, stated change not applied): as the sequence (P35225 other isoform, or with tags, fused parts or gaps limits assumed) above, with R110Q counted along it

| Binder | A549/TARC IL13 IC50 (human IL13 [1]) | HEK Stat6 human IL13 IC50 (human IL13 [1]) | A549/TARC IL4 IC50 (human IL4 [2]) | HEK stat6 hIL4 IC50 (human IL4 [2]) | Ramos Assay IC50 (human IL4 [2]) | Kd (human IL4 [3]) | Kd (human IL13 [4]) | IC50 (human IL4 [5]) | IC50 (human IL13 R130Q [6]) | IC50 (human IL4 [7]) | IC50 (human IL13 R130Q [8]) | HEK STAT6 IC50 (human IL13 [9]) | Kd (human IL13 [10]) |
| --- | --- | --- | --- | --- | --- | --- | --- | --- | --- | --- | --- | --- | --- |
| B1 | 131 pM | 27 pM | 50 pM | 3.9 pM | 8 pM | 10.9 pM | 38.4 pM | 34 pM | 199 pM | 34 pM | 199 pM | – | – |
| B2 | 92 pM | 19 pM | 33 pM | 2 pM | 6.9 pM | 3.1 pM | 16.6 pM | 24 pM | 32 pM | 24 pM | 32 pM | – | – |
| B3 | – | – | – | – | – | – | – | – | – | – | – | 85 pM | 24.2 pM |
| B4 | – | – | – | – | – | – | – | – | – | – | – | 202 pM | 65.6 pM |
| B5 | – | – | – | – | – | – | – | – | – | – | – | 5.6 pM | 25.1 pM |
